Like-named read-outs stand apart in the source and are kept apart here.
Assays:
[1] = biological target: T1, human 5T4 on the cell surface (human, UniProt Q13641 32-420); experiment: cell binding assay on 5T4-expressing tumor cells (cell line not given)
T1 construct: whole, on cells; also called h5T4; TPBG
T1 sequence (looked up): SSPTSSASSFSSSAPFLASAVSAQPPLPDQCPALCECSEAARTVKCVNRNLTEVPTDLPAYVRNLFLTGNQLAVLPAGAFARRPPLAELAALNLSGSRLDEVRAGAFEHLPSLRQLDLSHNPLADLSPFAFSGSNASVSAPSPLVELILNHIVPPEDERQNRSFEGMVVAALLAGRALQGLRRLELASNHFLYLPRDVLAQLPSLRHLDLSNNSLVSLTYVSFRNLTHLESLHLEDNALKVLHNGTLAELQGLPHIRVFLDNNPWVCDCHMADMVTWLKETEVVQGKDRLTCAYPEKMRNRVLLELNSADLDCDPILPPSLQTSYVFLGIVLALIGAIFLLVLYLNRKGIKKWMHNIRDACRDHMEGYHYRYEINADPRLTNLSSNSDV

[2] = biological target: T1, human 5T4 on the cell surface; experiment: as above; remark: listed apart in the source

B1: AB1878-TriNKET® (bispecific antibody, human IgG1, kappa)
chain: DIQLTQSPSSLSASVGDRVTITCRASQSVTTSNYNYMHWFQQKPGKAPKLLIKFASNLESGVPSRFSGSGSGTDFTLTISSLQPEDFATYYCQHSWEIPWTFGCGTKVEIKGGGGSGGGGSGGGGSGGGGSEVQLVESGGGLVKPGGSLRLSCAASRFTFSDFGMHWVRQAPGKCLEWVSYISSGSSTIYYADTVKGRFTISRDNAKNSLYLQMNSLRAEDTAVYYCASSQSYYRGTLDYWGQGTTVTVSSGSDKTHTCPPCPAPELLGGPSVFLFPPKPKDTLMISRTPEVTCVVVDVSHEDPEVKFNWYVDGVEVHNAKTKPREEQYNSTYRVVSVLTVLHQDWLNGKEYKCKVSNKALPAPIEKTISKAKGQPREPRVYTLPPCRDELTKNQVSLTCLVKGFYPSDIAVEWESNGQPENNYKTTPPVLVSDGSFTLYSKLTVDKSRWQQGNVFSCSVMHEALHNHYTQKSLSLSPG
heavy: EVQLVESGGGLVKPGGSLRLSCAASGFTFSSYSMNWVRQAPGKGLEWVSSISSSSSYIYYADSVKGRFTISRDNAKNSLYLQMNSLRAEDTAVYYCARGAPIGAAAGWFDPWGQGTLVTVSSASTKGPSVFPLAPSSKSTSGGTAALGCLVKDYFPEPVTVSWNSGALTSGVHTFPAVLQSSGLYSLSSVVTVPSSSLGTQTYICNVNHKPSNTKVDKKVEPKSCDKTHTCPPCPAPELLGGPSVFLFPPKPKDTLMISRTPEVTCVVVDVSHEDPEVKFNWYVDGVEVHNAKTKPREEQYNSTYRVVSVLTVLHQDWLNGKEYKCKVSNKALPAPIEKTISKAKGQPREPQVCTLPPSRDELTENQVSLTCLVKGFYPSDIAVEWESNGQPENNYKTTPPVLDSDGSFFLYSWLTVDKSRWQQGNVFSCSVMHEALHNHYTQKSLSLSPG
light: DIQMTQSPSSVSASVGDRVTITCRASQGISSWLAWYQQKPGKAPKLLIYAASSLQSGVPSRFSGSGSGTDFTLTISSLQPEDFATYYCQQGVSFPRTFGGGTKVEIKRTVAAPSVFIFPPSDEQLKSGTASVVCLLNNFYPREAKVQWKVDNALQSGNSQESVTEQDSKDSTYSLSSTLTLSKADYEKHKVYACEVTHQGLSSPVTKSFNRGEC
notes: F3′ format; also called AB1878-VL-VH TriNKET®; 10F10-IGHV3-21*05 BM1
- EC50 [1]: 10.1 nM
- Max Fold Over Background (FOB) [1]: 71.6 fold over background

B2: AB1890-TriNKET® (bispecific antibody, human IgG1, kappa)
chain: DIQLTQSPSSLSASVGDRVTITCRASQGVSTSTYTYMHWFQQKPGKAPKLLIKFASNLESGVPSRFSGSGSGTDFTLTISSLQPEDFATYYCQHSWEIPWTFGCGTKVEIKGGGGSGGGGSGGGGSGGGGSEVQLLESGGGLVQPGGSLRLSCAASGFTFSDYGMHWVRQAPGKCLEWVSYISSGSSTFYYADTVKGRFTISRDNSKNTLYLQMNSLRAEDTAVYYCGSSQSYYRGTMDYWGQGTTVTVSSGSDKTHTCPPCPAPELLGGPSVFLFPPKPKDTLMISRTPEVTCVVVDVSHEDPEVKFNWYVDGVEVHNAKTKPREEQYNSTYRVVSVLTVLHQDWLNGKEYKCKVSNKALPAPIEKTISKAKGQPREPRVYTLPPCRDELTKNQVSLTCLVKGFYPSDIAVEWESNGQPENNYKTTPPVLVSDGSFTLYSKLTVDKSRWQQGNVFSCSVMHEALHNHYTQKSLSLSPG
heavy: EVQLVESGGGLVKPGGSLRLSCAASGFTFSSYSMNWVRQAPGKGLEWVSSISSSSSYIYYADSVKGRFTISRDNAKNSLYLQMNSLRAEDTAVYYCARGAPIGAAAGWFDPWGQGTLVTVSSASTKGPSVFPLAPSSKSTSGGTAALGCLVKDYFPEPVTVSWNSGALTSGVHTFPAVLQSSGLYSLSSVVTVPSSSLGTQTYICNVNHKPSNTKVDKKVEPKSCDKTHTCPPCPAPELLGGPSVFLFPPKPKDTLMISRTPEVTCVVVDVSHEDPEVKFNWYVDGVEVHNAKTKPREEQYNSTYRVVSVLTVLHQDWLNGKEYKCKVSNKALPAPIEKTISKAKGQPREPQVCTLPPSRDELTENQVSLTCLVKGFYPSDIAVEWESNGQPENNYKTTPPVLDSDGSFFLYSWLTVDKSRWQQGNVFSCSVMHEALHNHYTQKSLSLSPG
light: DIQMTQSPSSVSASVGDRVTITCRASQGISSWLAWYQQKPGKAPKLLIYAASSLQSGVPSRFSGSGSGTDFTLTISSLQPEDFATYYCQQGVSFPRTFGGGTKVEIKRTVAAPSVFIFPPSDEQLKSGTASVVCLLNNFYPREAKVQWKVDNALQSGNSQESVTEQDSKDSTYSLSSTLTLSKADYEKHKVYACEVTHQGLSSPVTKSFNRGEC
notes: F3′ format; also called AB1890-VL-VH TriNKET®; 11F09-IGHV3-23*03 BM1-YB
- EC50 [2]: 5.62 nM
- Max Fold Over Background (FOB) [2]: 65.9 fold over background

B3: AB1893-TriNKET® (bispecific antibody, human IgG1, kappa)
chain: DIQLTQSPSSLSASVGDRVTITCRASQGVSTSTYTYMHWFQQKPGKAPKLLIKFASNLESGVPSRFSGSGSGTDFTLTISSLQPEDFATYYCQHSWEIPWTFGCGTKVEIKGGGGSGGGGSGGGGSGGGGSEVQLLESGGGLVQPGGSLRLSCAASGFTFSDYGMHWVRQAPGKCLEWLAYISSGSSTFYYADTVKGRFTISRDNAKNTLYLQMNSLRAEDTAVYYCGSSQSYYRGTMDYWGQGTTVTVSSGSDKTHTCPPCPAPELLGGPSVFLFPPKPKDTLMISRTPEVTCVVVDVSHEDPEVKFNWYVDGVEVHNAKTKPREEQYNSTYRVVSVLTVLHQDWLNGKEYKCKVSNKALPAPIEKTISKAKGQPREPRVYTLPPCRDELTKNQVSLTCLVKGFYPSDIAVEWESNGQPENNYKTTPPVLVSDGSFTLYSKLTVDKSRWQQGNVFSCSVMHEALHNHYTQKSLSLSPG
heavy: EVQLVESGGGLVKPGGSLRLSCAASGFTFSSYSMNWVRQAPGKGLEWVSSISSSSSYIYYADSVKGRFTISRDNAKNSLYLQMNSLRAEDTAVYYCARGAPIGAAAGWFDPWGQGTLVTVSSASTKGPSVFPLAPSSKSTSGGTAALGCLVKDYFPEPVTVSWNSGALTSGVHTFPAVLQSSGLYSLSSVVTVPSSSLGTQTYICNVNHKPSNTKVDKKVEPKSCDKTHTCPPCPAPELLGGPSVFLFPPKPKDTLMISRTPEVTCVVVDVSHEDPEVKFNWYVDGVEVHNAKTKPREEQYNSTYRVVSVLTVLHQDWLNGKEYKCKVSNKALPAPIEKTISKAKGQPREPQVCTLPPSRDELTENQVSLTCLVKGFYPSDIAVEWESNGQPENNYKTTPPVLDSDGSFFLYSWLTVDKSRWQQGNVFSCSVMHEALHNHYTQKSLSLSPG
light: DIQMTQSPSSVSASVGDRVTITCRASQGISSWLAWYQQKPGKAPKLLIYAASSLQSGVPSRFSGSGSGTDFTLTISSLQPEDFATYYCQQGVSFPRTFGGGTKVEIKRTVAAPSVFIFPPSDEQLKSGTASVVCLLNNFYPREAKVQWKVDNALQSGNSQESVTEQDSKDSTYSLSSTLTLSKADYEKHKVYACEVTHQGLSSPVTKSFNRGEC
notes: F3′ format; also called AB1893-VL-VH TriNKET®; 11F09-IGHV3-23*03 BM2-YB
- EC50 [2]: 15.9 nM
- Max Fold Over Background (FOB) [2]: 70.8 fold over background

B4: AB1881-TriNKET® (bispecific antibody, human IgG1, kappa)
chain: DIQLTQSPSSLSASVGDRVTITCRASQSVTTSNYNYMHWFQQKPGKAPKLLIKFASNLESGVPSRFSGSGSGTDFTLTISSLQPEDFATYYCQHSWEIPWTFGCGTKVEIKGGGGSGGGGSGGGGSGGGGSEVQLLESGGGLVQPGGSLRLSCAASRFTFSDFGMHWVRQAPGKCLEWIAYISSGSSTIYYADTVKGRFTISRDNAKNTLYLQMNSLRAEDTAVYYCASSQSYYRGTLDYWGQGTTVTVSSGSDKTHTCPPCPAPELLGGPSVFLFPPKPKDTLMISRTPEVTCVVVDVSHEDPEVKFNWYVDGVEVHNAKTKPREEQYNSTYRVVSVLTVLHQDWLNGKEYKCKVSNKALPAPIEKTISKAKGQPREPRVYTLPPCRDELTKNQVSLTCLVKGFYPSDIAVEWESNGQPENNYKTTPPVLVSDGSFTLYSKLTVDKSRWQQGNVFSCSVMHEALHNHYTQKSLSLSPG
heavy: EVQLVESGGGLVKPGGSLRLSCAASGFTFSSYSMNWVRQAPGKGLEWVSSISSSSSYIYYADSVKGRFTISRDNAKNSLYLQMNSLRAEDTAVYYCARGAPIGAAAGWFDPWGQGTLVTVSSASTKGPSVFPLAPSSKSTSGGTAALGCLVKDYFPEPVTVSWNSGALTSGVHTFPAVLQSSGLYSLSSVVTVPSSSLGTQTYICNVNHKPSNTKVDKKVEPKSCDKTHTCPPCPAPELLGGPSVFLFPPKPKDTLMISRTPEVTCVVVDVSHEDPEVKFNWYVDGVEVHNAKTKPREEQYNSTYRVVSVLTVLHQDWLNGKEYKCKVSNKALPAPIEKTISKAKGQPREPQVCTLPPSRDELTENQVSLTCLVKGFYPSDIAVEWESNGQPENNYKTTPPVLDSDGSFFLYSWLTVDKSRWQQGNVFSCSVMHEALHNHYTQKSLSLSPG
light: DIQMTQSPSSVSASVGDRVTITCRASQGISSWLAWYQQKPGKAPKLLIYAASSLQSGVPSRFSGSGSGTDFTLTISSLQPEDFATYYCQQGVSFPRTFGGGTKVEIKRTVAAPSVFIFPPSDEQLKSGTASVVCLLNNFYPREAKVQWKVDNALQSGNSQESVTEQDSKDSTYSLSSTLTLSKADYEKHKVYACEVTHQGLSSPVTKSFNRGEC
notes: F3′ format; also called AB1881-VL-VH TriNKET®; 10F10-IGHV3-23*03 BM2
- EC50 [1]: 7.28 nM
- Max Fold Over Background (FOB) [1]: 72.5 fold over background

B5: AB1891-TriNKET® (bispecific antibody, human IgG1, kappa)
chain: DIQLTQSPSSLSASVGDRVTITCRASQGVSTSTYTYMHWFQQKPGKAPKLLIKFASNLESGVPSRFSGSGSGTDFTLTISSLQPEDFATYYCQHSWEIPWTFGCGTKVEIKGGGGSGGGGSGGGGSGGGGSEVQLVESGGGLVKPGGSLRLSCAASGFTFSDYGMHWIRQAPGKCLEWVSYISSGSSTFYYADTVKGRFTISRDNAKNSLYLQMNSLRAEDTAVYYCGSSQSYYRGTMDYWGQGTTVTVSSGSDKTHTCPPCPAPELLGGPSVFLFPPKPKDTLMISRTPEVTCVVVDVSHEDPEVKFNWYVDGVEVHNAKTKPREEQYNSTYRVVSVLTVLHQDWLNGKEYKCKVSNKALPAPIEKTISKAKGQPREPRVYTLPPCRDELTKNQVSLTCLVKGFYPSDIAVEWESNGQPENNYKTTPPVLVSDGSFTLYSKLTVDKSRWQQGNVFSCSVMHEALHNHYTQKSLSLSPG
heavy: EVQLVESGGGLVKPGGSLRLSCAASGFTFSSYSMNWVRQAPGKGLEWVSSISSSSSYIYYADSVKGRFTISRDNAKNSLYLQMNSLRAEDTAVYYCARGAPIGAAAGWFDPWGQGTLVTVSSASTKGPSVFPLAPSSKSTSGGTAALGCLVKDYFPEPVTVSWNSGALTSGVHTFPAVLQSSGLYSLSSVVTVPSSSLGTQTYICNVNHKPSNTKVDKKVEPKSCDKTHTCPPCPAPELLGGPSVFLFPPKPKDTLMISRTPEVTCVVVDVSHEDPEVKFNWYVDGVEVHNAKTKPREEQYNSTYRVVSVLTVLHQDWLNGKEYKCKVSNKALPAPIEKTISKAKGQPREPQVCTLPPSRDELTENQVSLTCLVKGFYPSDIAVEWESNGQPENNYKTTPPVLDSDGSFFLYSWLTVDKSRWQQGNVFSCSVMHEALHNHYTQKSLSLSPG
light: DIQMTQSPSSVSASVGDRVTITCRASQGISSWLAWYQQKPGKAPKLLIYAASSLQSGVPSRFSGSGSGTDFTLTISSLQPEDFATYYCQQGVSFPRTFGGGTKVEIKRTVAAPSVFIFPPSDEQLKSGTASVVCLLNNFYPREAKVQWKVDNALQSGNSQESVTEQDSKDSTYSLSSTLTLSKADYEKHKVYACEVTHQGLSSPVTKSFNRGEC
notes: F3′ format; also called AB1891-VL-VH TriNKET®; 11F09-IGHV3-11*01 BM1-YB
- EC50 [2]: 50.5 nM
- Max Fold Over Background (FOB) [2]: 40.1 fold over background

Source: patent publication US20230203202A1 (DRAGONFLY THERAPEUTICS, published 2023)
